Assay [1] deals with recombinant HC1 (rHC1), wild type; heavy chain 1 of inter-α-inhibitor (human) (UniProt P19827). Briefly: SPR. (In general: In SPR one partner is held on a chip, and binding of the other changes the refractive index at the surface.)
Another assay addresses complement C3. Briefly: SPR.

pKd: −log10 of the molar value.

Consider 5 substances from paper doi:10.1101/695700.

recombinant HC1 (rHC1), wild type; heavy chain 1 of inter-α-inhibitor (human), sequence (P19827 35-672): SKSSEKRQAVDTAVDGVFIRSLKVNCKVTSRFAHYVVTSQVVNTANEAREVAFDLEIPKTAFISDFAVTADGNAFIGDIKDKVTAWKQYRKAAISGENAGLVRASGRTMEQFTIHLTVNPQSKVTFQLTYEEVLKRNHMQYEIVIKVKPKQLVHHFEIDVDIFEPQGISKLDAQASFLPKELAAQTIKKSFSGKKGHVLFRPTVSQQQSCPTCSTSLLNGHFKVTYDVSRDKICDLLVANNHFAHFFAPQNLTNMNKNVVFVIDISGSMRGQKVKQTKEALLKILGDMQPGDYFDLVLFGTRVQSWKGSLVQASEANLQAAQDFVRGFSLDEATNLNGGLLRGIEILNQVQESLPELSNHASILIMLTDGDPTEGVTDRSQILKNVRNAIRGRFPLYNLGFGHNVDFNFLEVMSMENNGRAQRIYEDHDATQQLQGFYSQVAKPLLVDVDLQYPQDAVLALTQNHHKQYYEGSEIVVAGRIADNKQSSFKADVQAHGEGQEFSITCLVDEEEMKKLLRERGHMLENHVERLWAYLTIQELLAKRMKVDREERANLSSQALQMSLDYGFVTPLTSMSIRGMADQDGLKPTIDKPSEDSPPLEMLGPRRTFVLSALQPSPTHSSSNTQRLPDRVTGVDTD

Turning to “LAP (latency-associated peptide from TGFβ1) (domain or fragment)”, in assay [1], the pKd (commonly the Kd on a negative log10 scale, so that one unit is a factor of ten) is 8.70.

Turning to “TGFβ1-LAP (small latent complex of TGFβ1) (from UniProt P01137 30-278)”, the pKd in assay [1] is 8.00.

For the substance “TGFβ2-LAP (small latent complex of TGFβ2) (from UniProt P61812 21-302)”, the pKd in assay [1] was 8.00.

As for “TGFβ3-LAP (small latent complex of TGFβ3) (from UniProt P10600 24-300)”, the pKd in assay [1] is 8.00.

Turning to “inter-α-inhibitor (IαI) (from UniProt P19827 35-672; P19823 55-702) (complex)”, the pKd with complement C3 was 6.18.
